The target in series [1] is T1, Human VPAC2 Receptor (Homo sapiens, UniProt P41587).
T1 sequence (P41587 24-438): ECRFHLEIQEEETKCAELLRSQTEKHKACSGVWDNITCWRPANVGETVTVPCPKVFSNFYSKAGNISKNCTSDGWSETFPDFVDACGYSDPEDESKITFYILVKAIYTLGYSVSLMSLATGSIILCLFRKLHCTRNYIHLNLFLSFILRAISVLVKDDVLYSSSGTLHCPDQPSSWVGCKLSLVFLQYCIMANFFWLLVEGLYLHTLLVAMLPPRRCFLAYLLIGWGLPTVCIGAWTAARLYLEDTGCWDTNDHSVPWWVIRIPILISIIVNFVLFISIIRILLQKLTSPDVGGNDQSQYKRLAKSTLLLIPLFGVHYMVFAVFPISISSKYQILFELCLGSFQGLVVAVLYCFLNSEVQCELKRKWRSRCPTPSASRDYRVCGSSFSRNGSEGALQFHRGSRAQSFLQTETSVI
Description: Alpha screen cAMP potency at human VPAC2 receptor. The note with it: cAMP generation; read-out: Human VPAC2 Receptor: Alphascreen (EC50; nM). Type of series: cell-based. How it is done:
Alpha screen: Cells are washed in the culture flask once with PBS. Then, the cells are rinsed with enzyme free dissociation buffer. The dissociated cells are removed. The cells are then spun down and washed in stimulation buffer. For each data point, 50,000 cells suspended in stimulation buffer are used. To this buffer, Alpha screen acceptor beads are added along with the stimuli. This mixture is incubated for 60 minutes. Lysis buffer and Alpha screen donor beads are added and are incubated for 60 to 120 minutes. The Alpha screen signal (indicative of intracellular cAMP levels) is read in a suitable instrument (e.g. AlphaQuest from Perkin-Elmer). Steps including Alpha screen donor and acceptor beads are performed in reduced light. The EC50 for cAMP generation is calculated from the raw signal or is based on absolute cAMP levels as determined by a standard curve performed on each plate.
The tested peptide concentrations are: 10000, 1000, 100, 10, 3, 1, 0.1, 0.01, 0.003, 0.001, 0.0001 and 0.00001 nM.
A general note: In Alpha technology, singlet oxygen from a donor bead excites a nearby acceptor bead.

Another series addresses T2, Rat VPAC1 Receptor (Rattus norvegicus, UniProt P30083).
T2 construct: expressed in transfected cells; host or cells: CHO-PO (transient, Lipofectamine)
T2 sequence (P30083 31-459): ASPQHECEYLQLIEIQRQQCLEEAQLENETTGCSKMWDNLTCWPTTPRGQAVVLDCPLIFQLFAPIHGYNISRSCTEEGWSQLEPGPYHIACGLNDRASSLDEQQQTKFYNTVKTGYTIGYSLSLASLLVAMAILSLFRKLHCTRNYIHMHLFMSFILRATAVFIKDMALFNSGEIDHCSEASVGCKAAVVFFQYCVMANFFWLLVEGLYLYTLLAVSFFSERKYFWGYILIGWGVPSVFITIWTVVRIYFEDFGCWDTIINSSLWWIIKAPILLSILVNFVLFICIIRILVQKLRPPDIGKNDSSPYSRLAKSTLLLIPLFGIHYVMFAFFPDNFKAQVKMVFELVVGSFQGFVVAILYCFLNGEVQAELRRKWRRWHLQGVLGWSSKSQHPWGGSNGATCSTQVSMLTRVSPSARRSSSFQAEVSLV
Description: DiscoveRx cAMP potency, CHO-PO cells transiently transfected with rat VPAC1 receptor. Type of series: cell-based. Particulars: cAMP generation. How it is done:
(§1) DiscoveRx: CHO-PO cells are transiently transfected with rat VPAC1 or VPAC2 receptor DNA using commercially available transfection reagents (Lipofectamine from Invitrogen). The cells are seeded at a density of 10,000/well in a 96-well plate and are allowed to grow for 3 days in […] culture medium At day 3, the assay is performed.
(§2) On the day of the experiment, the medium is removed. Also, the cells are washed twice. The cells are incubated in assay buffer plus IBMX for 15 minutes at room temperature. Afterwards, the stimuli are added and are dissolved in assay buffer. The stimuli are present for 30 minutes. Then, the assay buffer is gently removed. The cell lysis reagent of the DiscoveRx cAMP kit is added. Thereafter, the standard protocol for developing the cAMP signal as described by the manufacturer is used (DiscoveRx Inc., USA). EC50 values for cAMP generation are calculated from the raw signal or are based on absolute cAMP levels as determined by a standard curve performed on each plate.
(§3) Results for each agonist are the mean of two independent runs. Rat VPAC1 and VPAC2 results are only generated using the DiscoveRx assay.

Another series addresses T3, Rat VPAC2 Receptor (Rattus norvegicus, UniProt P35000).
T3 construct: expressed in transfected cells; host or cells: CHO-PO (transient, Lipofectamine)
T3 sequence (P35000 23-437): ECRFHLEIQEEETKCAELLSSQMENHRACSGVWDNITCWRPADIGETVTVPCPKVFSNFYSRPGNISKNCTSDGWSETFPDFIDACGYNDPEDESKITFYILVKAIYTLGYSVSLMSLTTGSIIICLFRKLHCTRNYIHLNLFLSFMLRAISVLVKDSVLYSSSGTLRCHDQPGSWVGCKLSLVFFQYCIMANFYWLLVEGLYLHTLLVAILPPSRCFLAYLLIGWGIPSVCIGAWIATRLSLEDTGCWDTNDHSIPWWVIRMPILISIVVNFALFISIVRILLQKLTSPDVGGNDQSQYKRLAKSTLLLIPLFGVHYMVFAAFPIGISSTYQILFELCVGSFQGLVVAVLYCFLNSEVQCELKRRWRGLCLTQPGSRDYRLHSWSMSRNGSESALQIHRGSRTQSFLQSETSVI
Description: DiscoveRx cAMP potency, CHO-PO cells transiently transfected with rat VPAC2 receptor. In kind it is cell-based. The note with it: cAMP generation. The protocol: as §1, §2, §3

Series [2] addresses T1, Human VPAC2 Receptor. Description: Filter binding assay, 125I-labeled VIP, membranes of stable VPAC2 cell line. Particulars: 125I-labeled VIP tracer. How it is done: For this assay, the solutions and equipment include:
Presoak solution: 0.5% Polyethyleneamine in Aqua dest
Buffer for flushing filter plates: 25 mM HEPES pH 7.4
Blocking buffer: 25 mM HEPES pH 7.4; 0.2% protease free BSA
Assay buffer: 25 mM HEPES pH 7.4; 0.5% protease free BSA
Dilution and assay plate: PS-Microplate, U form
Filtration Plate Multiscreen FB Opaque Plate; […] Type B Glasfiber filter
In order to prepare the filter plates, the presoak solution is aspirated by vacuum filtration. The plates are flushed twice with 200 μL flush buffer. 200 μL blocking buffer is added to the filter plate. The filter plate is then incubated with 200 μL presoak solution for 1 hour at room temperature.
The assay plate is filled with 25 μL assay buffer, 25 μL membranes (2.5 μg) suspended in assay buffer, 25 μL agonist in assay buffer, and 25 μL tracer (about 40000 cpm) in assay buffer. The filled plate is incubated for 1 hour with shaking.
The transfer from assay plate to filter plate is conducted. The blocking buffer is aspirated by vacuum filtration and washed two times with flush buffer. 90 μL is transferred from the assay plate to the filter plate. The 90 μL transferred from assay plate is aspirated and washed three times with 200 μL flush buffer. The plastic support is removed. It is dried for 1 hour at 60° C. 30 μL Microscint is added. The count is performed.

Series [3] is described as follows: Rat serum stability study (DiscoveRx cAMP read-out on CHO-VPAC2 cells). Particulars: 24 h in rat serum at 37° C.; EC50, 4° C./EC50, 37° C.; values >100% may represent release of intact peptide from the PEG conjugate.

Consider “C6-HSDAVFTEQY(OMe)TOrnLRAibQC(PEG20K)AAAibOrnYLQSIOrnOrnGGPSSGAPPPC(PEG20K)-NH2 (HSDAVFTEQYTXLRXQCAAXXYLQSIXXGGPSSGAPPPC; C6 acyl, two PEG20K, C-terminal amide; Synthetic sequence PEGylated VPAC2 receptor agonist) [Agonist P568]”, for which the EC50 (commonly the concentration that produces a half-maximal response) with Human VPAC2 Receptor [1] is 129 nM; with Rat VPAC1 Receptor, over 1000 nM; with Rat VPAC2 Receptor, 250 nM.

Consider “C6-HSDAVFTEK(CO(CH2)2SPEG40K)Y(OMe)TOrnLRAibQVAAAibOrnYLQSIOrnOrnGGPSSGAPPPS-NH2 (HSDAVFTEXYTXLRXQVAAXXYLQSIXXGGPSSGAPPPS; C6 acyl; PEG40K; non-natural residues; amide; Synthetic sequence PEGylated VPAC2 receptor peptide agonist) [Agonist P451]”, for which, in the series with Human VPAC2 Receptor [1], the EC50 turned out to be 68.6 nM. The half-maximal inhibitory concentration (IC50) (in general, the concentration needed to halve the response being measured) with Human VPAC2 Receptor [2] stood at 596 nM.

Turning to “C6-HSDAVFTEQY(OMe)TOrnLRAibQVAAAibK(CO(CH2)2SPEG40K)YLQSIOrnOrnGGPSSGAPPPS-NH2 (HSDAVFTEQYTXLRXQVAAXXYLQSIXXGGPSSGAPPPS; C6 acyl; PEG40K; non-natural residues; amide; Synthetic sequence PEGylated VPAC2 receptor peptide agonist) [Agonist P472]”, the EC50 with Human VPAC2 Receptor [1] was found to be 123 nM; with Rat VPAC2 Receptor, 285 nM. For the same substance, in series [3], the “24 h stab (%)” value came out at 66%.

With “C6-HSDAVFTEQY(OMe)TOrnLRAibQVAAAibOrnYAibQSIOrnOrnGGPSSGAPPPC(PEG40K)-NH2 (HSDAVFTEQYTXLRXQVAAXXYXQSIXXGGPSSGAPPPC; C6 acyl, PEG40K on Cys, C-terminal amide; Synthetic sequence PEGylated VPAC2 receptor agonist) [Agonist P507]”, the EC50 with Human VPAC2 Receptor [1] is 27.1 nM; in the series with Rat VPAC1 Receptor it was over 1000 nM; in the series with Rat VPAC2 Receptor it was 94.9 nM.

On to “C6-HSDAVFTEQY(OMe)TOrnLRAibQC(PEG40K)AAbuAibOrnY(OMe)LQAibIOrnOrnGGPSSGAPPPS-NH2 (HSDAVFTEQYTXLRXQCAXXXYLQXIXXGGPSSGAPPPS; C6 acyl, non-natural residues, PEG40K, C-terminal amide; Synthetic sequence PEGylated VPAC2 receptor agonist) [Agonist P578]”, for which the EC50 with Human VPAC2 Receptor [1] is 205 nM; with Rat VPAC1 Receptor it was 269 nM; with Rat VPAC2 Receptor, 306 nM.

In the series with Human VPAC2 Receptor [2], “C6-HSDAVFTEQY(OMe)TOrnLRAibQK(WPEG40K)AAAibOrnYLQSIOrnOrnGGPSSGAPPPS-NH2 (HSDAVFTEQYTXLRXQXAAXXYLQSIXXGGPSSGAPPPS; C6 acyl, PEG40K on Lys, C-terminal amide; Synthetic sequence PEGylated VPAC2 receptor agonist) [Agonist P533]” yielded an IC50 of 959 nM. This lies in the sub-micromolar range.

For the substance “C6-HSDAVFTEQY(OMe)TOrnLRAibQLAAbuAibOrnY(OMe)LQSIOrnC(PEG40K)OrnGGPSSGAPPPS-NH2 (HSDAVFTEQYTXLRXQLAXXXYLQSIXCXGGPSSGAPPPS; C6 acyl, non-natural residues, PEG40K, C-terminal amide; Synthetic sequence PEGylated VPAC2 receptor agonist) [Agonist P584]”, the EC50 stood at 51.2 nM with Human VPAC2 Receptor [1], 188 nM with Rat VPAC1 Receptor and 67.2 nM with Rat VPAC2 Receptor.

Consider “C6-HSDAVFTEQY(OMe)TOrnLRAibQLAAbuAibOrnY(OMe)LQSIOrnC(PEG20K)OrnGGPSSGAPPPC(PEG20K)-NH2 (HSDAVFTEQYTXLRXQLAXXXYLQSIXCXGGPSSGAPPPC; C6 acyl, non-natural residues, two PEG20K, C-terminal amide; Synthetic sequence PEGylated VPAC2 receptor agonist) [Agonist P588]”, for which the EC50 in the series with Human VPAC2 Receptor [1] came out at 54 nM; in the series with Rat VPAC1 Receptor, 406 nM; with Rat VPAC2 Receptor it was 311 nM.

With “C6-HSDAVFTEQY(OMe)TOrnLRAibQLAAbUAibOrnY(OMe)LQAibIOrnC(PEG40K)OrnGGPSSGAPPPS-NH2 (HSDAVFTEQYTXLRXQLAXXXYLQXIXCXGGPSSGAPPPS; C6 acyl, non-natural residues, PEG40K, C-terminal amide; Synthetic sequence PEGylated VPAC2 receptor agonist) [Agonist P576]”, the EC50 with Human VPAC2 Receptor [1] came to 55 nM; with Rat VPAC1 Receptor it was 461 nM; with Rat VPAC2 Receptor, 67.4 nM.

With “C6-HSDAVFTEQY(OMe)TOrnLRAibQC(PEG40K)AAbuAibOrnY(OMe)LQSIOrnOrnGGPSSGAPPPS-NH2 (HSDAVFTEQYTXLRXQCAXXXYLQSIXXGGPSSGAPPPS; C6 acyl, non-natural residues, PEG40K, C-terminal amide; Synthetic sequence PEGylated VPAC2 receptor agonist) [Agonist P586]”, the 50% effective concentration (EC50) with Human VPAC2 Receptor [1] came out at 122 nM; with Rat VPAC1 Receptor, 502 nM; with Rat VPAC2 Receptor, 187 nM.

(Values after patent US7897573B2, “Selective VPAC2 receptor peptide agonists” (priority 2005, dated 2011).)
